Experimental data from US20220153847A1 (Chugai, published 2022).

T1: HLA-DQ2.5 on HLA-DQ2.5-positive PBMC B cells (human, UniProt P01909 24-254; P01920 33-261)
T1 construct: whole, on cells; also called HLA-DQ2.5+ PBMC B cell
T1 MHC II alpha: not shown
T1 MHC II beta: not shown


What was measured:
[1] = molecular target: DQ2.5/alpha 1 gliadin peptide on IHW9023 cells (human); assay: cell-based or functional assay
[2] = molecular target: DQ2.5/alpha 2 gliadin peptide on IHW9023 cells (human); assay: cell-based or functional assay
[3] = molecular target: DQ2.5/omega 1 gliadin peptide on IHW9023 cells (human); assay: cell-based or functional assay
[4] = molecular target: DQ2.5/omega 2 gliadin peptide on IHW9023 cells (human); assay: cell-based or functional assay
[5] = molecular target: DQ2.5/gamma 1 gliadin peptide on IHW9023 cells (human); assay: cell-based or functional assay
[6] = molecular target: DQ2.5/BC hordein peptide on IHW9023 cells (human); assay: cell-based or functional assay
[7] = molecular target: DQ2.5/alpha 1b gliadin peptide on IHW9023 cells (human); assay: cell-based or functional assay
[8] = molecular target: DQ2.5/gamma 4a gliadin peptide on IHW9023 cells (human); assay: cell-based or functional assay
[9] = molecular target: HLA-DQ2.5/33mer gliadin peptide on IHW9088 cells (human); assay: cell-based or functional assay
[10] = molecular target: T2, HLA-DQ2.5/33mer gliadin peptide complex on Ba/F3 cells (human); assay: FACS, Ba/F3 cells; IC17=0%, DQN0139bb=100%;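 also: flow cytometric binding of anti-HLA-DQ antibodies, each applied at 5 µg/mL for 30 min at room temperature, to Ba/F3 cell lines displaying HLA-DQ–peptide complexes; antibody tested at 5 microgram/mL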
T2 construct: whole, on cells; also called Ba/F3-HLA-DQ2.5/33mer gliadin
Description: (§1) The binding of anti-HLA-DQ antibodies to Ba/F3-HLA-DQ2.5, Ba/F3-HLA-DQ2.2, Ba/F3-HLA-DQ7.5, Ba/F3-HLA-DQ8, Ba/F3-HLA-DQ5.1, Ba/F3-HLA-DQ6.3, Ba/F3-HLA-DQ7.3, Ba/F3-HLA-DR, Ba/F3-HLA-DP, Ba/F3-HLA-DQ2.5/CLIP, Ba/F3-HLA-DQ2.5/HBV, Ba/F3-HLA-DQ2.5/Salmonella, Ba/F3-HLA-DQ2.5/TPO, Ba/F3-HLA-DQ2.5/M. bovis, Ba/F3-HLA-DQ2.5/alpha 1 gliadin, Ba/F3-HLA-DQ2.5/alpha 2 gliadin, Ba/F3-HLA-DQ2.5/gamma 1 gliadin, Ba/F3-HLA-DQ2.5/gamma 2 gliadin, Ba/F3-HLA-DQ2.5/omega 1 gliadin, Ba/F3-HLA-DQ2.5/omega 2 gliadin, Ba/F3-HLA-DQ2.5/BC hordein, Ba/F3-HLA-DQ2.5/alpha 3 gliadin, Ba/F3-HLA-DQ2.5/alpha 1b gliadin, Ba/F3-HLA-DQ2.5/gamma 4b gliadin, Ba/F3-HLA-DQ2.5/avenin 1, Ba/F3-HLA-DQ2.5/avenin 2, Ba/F3-HLA-DQ2.5/avenin 3, Ba/F3-HLA-DQ2.5/hordein 1, Ba/F3-HLA-DQ2.5/hordein 2, Ba/F3-HLA-DQ2.5/secalin 1, Ba/F3-HLA-DQ2.5/secalin 2, Ba/F3-HLA-DQ2.5/14mer 1, Ba/F3-HLA-DQ2.5/33mer gliadin, Ba/F3-HLA-DQ2.5/26mer gliadin, was tested. 5 microgram/mL of each of the anti-HLA-DQ antibodies was incubated with each cell line for 30 minutes at room temperature and washed with FACS buffer (2% FBS, 2 mM EDTA in PBS).

[11] = molecular target: T3, HLA-DQ2.5/alpha 1 gliadin peptide complex on Ba/F3 cells (human); assay: FACS, Ba/F3 cells; IC17=0%, DQN0139bb=100%;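 also: flow cytometric binding of anti-HLA-DQ antibodies, each applied at 5 µg/mL for 30 min at room temperature, to Ba/F3 cell lines displaying HLA-DQ–peptide complexes; antibody tested at 5 microgram/mL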
T3 construct: whole, on cells; also called Ba/F3-HLA-DQ2.5/alpha 1 gliadin; HLA-DQ2.5/a1 gliadin
Description: as §1

[12] = molecular target: T4, HLA-DQ2.5/alpha 2 gliadin peptide complex on Ba/F3 cells (human); assay: FACS, Ba/F3 cells; IC17=0%, DQN0139bb=100%;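 also: flow cytometric binding of anti-HLA-DQ antibodies, each applied at 5 µg/mL for 30 min at room temperature, to Ba/F3 cell lines displaying HLA-DQ–peptide complexes; antibody tested at 5 microgram/mL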
T4 construct: whole, on cells; also called Ba/F3-HLA-DQ2.5/alpha 2 gliadin; HLA-DQ2.5/a2 gliadin
Description: as §1

[13] = molecular target: T5, HLA-DQ2.5/gamma 1 gliadin peptide complex on Ba/F3 cells (human); assay: FACS, Ba/F3 cells; IC17=0%, DQN0139bb=100%;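 also: flow cytometric binding of anti-HLA-DQ antibodies, each applied at 5 µg/mL for 30 min at room temperature, to Ba/F3 cell lines displaying HLA-DQ–peptide complexes; antibody tested at 5 microgram/mL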
T5 construct: whole, on cells; also called Ba/F3-HLA-DQ2.5/gamma 1 gliadin; HLA-DQ2.5/g1 gliadin
Description: as §1

[14] = molecular target: T6, HLA-DQ2.5/omega 1 gliadin peptide complex on Ba/F3 cells (human); assay: FACS, Ba/F3 cells; IC17=0%, DQN0139bb=100%
T6 construct: whole, on cells; also called Ba/F3-HLA-DQ2.5/omega 1 gliadin; HLA-DQ2.5/w1 gliadin
Description: as §1

[15] = molecular target: T7, HLA-DQ2.5/alpha 3 gliadin peptide complex on Ba/F3 cells (human); assay: FACS, Ba/F3 cells; IC17=0%, DQN0139bb=100%
T7 construct: whole, on cells; also called Ba/F3-HLA-DQ2.5/alpha 3 gliadin; HLA-DQ2.5/a3 gliadin
Description: as §1

[16] = molecular target: T8, HLA-DQ2.5/alpha 1b gliadin peptide complex on Ba/F3 cells (human); assay: FACS, Ba/F3 cells; IC17=0%, DQN0139bb=100%
T8 construct: whole, on cells; also called Ba/F3-HLA-DQ2.5/alpha 1b gliadin; HLA-DQ2.5/a1b gliadin
Description: as §1

[17] = molecular target: T9, HLA-DQ2.5/gamma 4b gliadin peptide complex on Ba/F3 cells (human); assay: FACS, Ba/F3 cells; IC17=0%, DQN0139bb=100%
T9 construct: whole, on cells; also called Ba/F3-HLA-DQ2.5/gamma 4b gliadin; HLA-DQ2.5/g4b gliadin
Description: as §1

[18] = molecular target: T10, HLA-DQ2.5/avenin 1 peptide complex on Ba/F3 cells (human); assay: FACS, Ba/F3 cells; IC17=0%, DQN0139bb=100%
T10 construct: whole, on cells; also called Ba/F3-HLA-DQ2.5/avenin 1
Description: as §1

[19] = molecular target: T11, HLA-DQ2.5/avenin 2 peptide complex on Ba/F3 cells (human); assay: FACS, Ba/F3 cells; IC17=0%, DQN0139bb=100%
T11 construct: whole, on cells; also called Ba/F3-HLA-DQ2.5/avenin 2
Description: as §1

[20] = molecular target: T12, HLA-DQ2.5/avenin 3 peptide complex on Ba/F3 cells (human); assay: FACS, Ba/F3 cells; IC17=0%, DQN0139bb=100%
T12 construct: whole, on cells; also called Ba/F3-HLA-DQ2.5/avenin 3
Description: as §1

[21] = molecular target: T13, HLA-DQ2.5/hordein 1 peptide complex on Ba/F3 cells (human); assay: FACS, Ba/F3 cells; IC17=0%, DQN0139bb=100%
T13 construct: whole, on cells; also called Ba/F3-HLA-DQ2.5/hordein 1
Description: as §1

[22] = molecular target: T14, HLA-DQ2.5/secalin 1 peptide complex on Ba/F3 cells (human); assay: FACS, Ba/F3 cells; IC17=0%, DQN0139bb=100%
T14 construct: whole, on cells; also called Ba/F3-HLA-DQ2.5/secalin 1
Description: as §1

[23] = molecular target: T15, HLA-DQ2.5/secalin 2 peptide complex on Ba/F3 cells (human); assay: FACS, Ba/F3 cells; IC17=0%, DQN0139bb=100%
T15 construct: whole, on cells; also called Ba/F3-HLA-DQ2.5/secalin 2
Description: as §1

[24] = molecular target: T16, HLA-DQ2.5/26mer gliadin peptide complex on Ba/F3 cells (human); assay: FACS, Ba/F3 cells; IC17=0%, DQN0139bb=100%
T16 construct: whole, on cells; also called Ba/F3-HLA-DQ2.5/26mer gliadin
Description: as §1

[25] = molecular target: DQ2.5/gamma 2 gliadin peptide on IHW9023 cells (human); assay: cell-based or functional assay
[26] = molecular target: T17, HLA-DQ2.5/CLIP peptide complex on Ba/F3 cells (human); assay: FACS, Ba/F3 cells; IC17=0%, DQN0139bb=100%
T17 construct: whole, on cells; also called Ba/F3-HLA-DQ2.5/CLIP
Description: as §1

[27] = molecular target: T18, HLA-DQ2.5/gamma 2 gliadin peptide complex on Ba/F3 cells (human); assay: FACS, Ba/F3 cells; IC17=0%, DQN0139bb=100%
T18 construct: whole, on cells; also called Ba/F3-HLA-DQ2.5/gamma 2 gliadin; HLA-DQ2.5/g2 gliadin
Description: as §1

[28] = molecular target: T19, HLA-DQ2.5/omega 2 gliadin peptide complex on Ba/F3 cells (human); assay: FACS, Ba/F3 cells; IC17=0%, DQN0139bb=100%
T19 construct: whole, on cells; also called Ba/F3-HLA-DQ2.5/omega 2 gliadin; HLA-DQ2.5/w2 gliadin
Description: as §1

[29] = molecular target: T20, HLA-DQ2.5/BC hordein peptide complex on Ba/F3 cells (human); assay: FACS, Ba/F3 cells; IC17=0%, DQN0139bb=100%
T20 construct: whole, on cells; also called Ba/F3-HLA-DQ2.5/BC hordein
Description: as §1

[30] = molecular target: T21, HLA-DQ2.5/hordein 2 peptide complex on Ba/F3 cells (human); assay: FACS, Ba/F3 cells; IC17=0%, DQN0139bb=100%
T21 construct: whole, on cells; also called Ba/F3-HLA-DQ2.5/hordein 2
Description: as §1

[31] = molecular target: T22, HLA-DQ2.5/14mer 1 peptide complex on Ba/F3 cells (human); assay: FACS, Ba/F3 cells; IC17=0%, DQN0139bb=100%
T22 construct: whole, on cells; also called Ba/F3-HLA-DQ2.5/14mer 1
Description: as §1

[32] = molecular target: T1, HLA-DQ2.5 on HLA-DQ2.5-positive PBMC B …; assay: FACS, PBMC B cells; IC17=0%, DQN0139bb=100%

T17 sequence (P04233 96-124, chain 2 of 2, other chains not shown): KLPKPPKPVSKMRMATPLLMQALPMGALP

Binder | IC50, Jurkat NFAT-Luc T cell activation [1] [µg/mL] | IC50, Jurkat NFAT-Luc T cell activation [2] [µg/mL] | IC50, Jurkat NFAT-Luc T cell activation [3] [µg/mL] | IC50, Jurkat NFAT-Luc T cell activation [4] [µg/mL] | IC50, Jurkat NFAT-Luc T cell activation [5] [µg/mL] | IC50, Jurkat NFAT-Luc T cell activation [6] [µg/mL] | IC50, Jurkat NFAT-Luc T cell activation [7] [µg/mL] | IC50, Jurkat NFAT-Luc T cell activation [8] [µg/mL] | % MFI [10] [%] | % MFI [11] [%] | % MFI [12] [%] | % MFI [13] [%] | % MFI [14] [%] | % MFI [15] [%] | % MFI [16] [%] | % MFI [17] [%] | % MFI [18] [%] | % MFI [19] [%] | % MFI [21] [%] | % MFI [23] [%] | further results
DQN0139bb (antibody, V domains shown) VH: QSLEESGGRLVTPGTALTLTCTVSGFSLSSYAMGWVRQAPGKGLEYIGWTSPGDSAYYASWTKGRFTISRTSTTVELKITSPTTEDTATYFCARDAAYIGHWAFNLWGPGTLVTVSS VL: DVVMTQTPASVSAPVGGTVTINCQASESIYSNLAWYQQKPGQPPKLLIYGASTLESGVPSRVKGSGYGTQFTLTISDLECADAATYYCQQYYGSSSTAFTFGGGTKVEIK | 0.0735 | 0.0605 | 0.0719 | 0.248 | 0.119 | 0.0759 | 0.0765 | 0.0769 |  |  |  |  |  |  |  |  |  |  |  |  | IC50 (read off the curve) [9]: ~0.03 microgram/mL
DQN0344xx (antibody, V domains shown) VH: QSLEESGGGLVKPGGTLTLTCTASGFSFSSSYWMCWVRQAPGKGLEWVACVYGGSDTTYYASWTKGRFTISKGSSTTVALQVTSLTAADTATYFCARDPLNYYYYGELNLWGPGTLVTVSS VL: AVVLTQTASPVSAAVGGTVTIRCQATENIYSGLAWYQQKPGQPPKVLIYYVSTLASGVPSRFKGSGSGTEYTLTISGVQCDDAATYYCQTYHDISNVTFGGGTKVEIK | 0.00998 | 0.00082 | 0.0124 |  |  |  | 0.0272 |  | 107 | 77.1 | 69.5 | 0.4 | 49.5 | 42.2 | 66.6 | 1 | 60.9 | 48.6 | 18.8 | 37.6 | % MFI [20]: 48.4%; % MFI [22]: 52.2%; % MFI [24]: 3.2%
DQN0385ee (antibody, V domains shown, also called DQN0385xx) VH: QEQLEESGGDLVKPGASLTLTCTASGFSFYSSYWICWVRQAPGKGLEWIACIDTGSGSIDYASWVNGRFTISKTSSTTVTLQMTSLTVADTATYFCARDIGIDYNFWGPGTLVTVSS VL: AFELTQTPSFVEAAVGGTVTIKCQATQSISSYLNWYQQKPGQPPKLLIYYASTLASGVPSRFKGSGSGTEFSLTISGVECADAATYYCHYGISYVSFGGGTKVEIK |  | 0.000264 |  | 0.000758 | 0.0217 | 0.0164 | 0.64 | 0.381 | 56.2 | 9.7 | 70.9 | 57.7 | 16.5 | 59.7 | 20.3 | 53.6 | 19.1 | 28 | 18.2 | 32.5 | IC50, Jurkat NFAT-Luc T cell activation [25]: 4.9 µg/mL; % MFI [26]: 4.4%; % MFI [27]: 20.6%; % MFI [28]: 53%; % MFI [29]: 61.8%; % MFI [30]: 71.4%; % MFI [31]: 70.7%; % MFI [24]: 70.8%; % MFI [32]: 1%
